Positions count from the first letter of the chain named. Where no end group is shown, it is not given here.
T1: His6-gp7 (Bacillus phage GIL01) (UniProt Q7WSG2)
T1 sequence: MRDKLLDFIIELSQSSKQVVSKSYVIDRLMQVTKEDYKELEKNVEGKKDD

T2: His6-LexA (Bacillus thuringiensis LexA repressor) (B. thuringiensis, UniProt A0RH75 1-206)
T2 construct: LexA, SOS transcription repressor of Bacillus thuringiensis; insert defined by nucleotide coordinates 3 624 082 through 3 624 714 in B. cereus strain G9842 (GenBank NC_011772), cloned BamHI-HindIII into pQE-30; also called His-tagged LexA; B. thuringiensis LexA repressor; source: E. coli M15 [pREP4], pQE-30, purified (Ni-NTA); not shown: His6, N-terminal, kept
T2 sequence (looked up): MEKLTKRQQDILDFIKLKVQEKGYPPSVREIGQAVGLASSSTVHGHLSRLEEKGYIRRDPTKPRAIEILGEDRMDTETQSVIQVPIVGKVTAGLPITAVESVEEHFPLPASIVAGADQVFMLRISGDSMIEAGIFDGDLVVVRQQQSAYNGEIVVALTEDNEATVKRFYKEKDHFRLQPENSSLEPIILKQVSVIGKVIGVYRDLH

T3: His6-gp7 (Bacillus phage GIL01, UniProt Q7WSG2 1-50)
T3 chain: T1 sequence

B1: SPR Wt (dinBox1+dinBox1b) (dsDNA)
DNA 1: GTTACTACTCGAGCGTTAAAAAACGAACAAGCGTTTTATAAGTGTTCGGTTTTTGTA
DNA 2: TACAAAAACCGAACACTTATAAAACGCTTGTTCGTTTTTTAA
DNA 3: CGCTCGAGTAGTAAC
B2: SPR B12 (dinBox1 double mutant) (dsDNA)
DNA 1: B1 DNA 1 with G25T, G33T
DNA 2: B1 DNA 2 with C25A, C33A
DNA 3: CGCTCGAGTAGTAAC
B3: SPR B22 (dinBox1b double mutant) (dsDNA)
DNA 1: B1 DNA 1 with G44A, G48A
DNA 2: B1 DNA 2 with C10T, C14T
DNA 3: CGCTCGAGTAGTAAC
B4: SPR B11 (dinBox1 single mutant) (dsDNA)
DNA 1: B1 DNA 1 with G33T
DNA 2: B1 DNA 2 with C25A
DNA 3: CGCTCGAGTAGTAAC
B5: SPR B21 (dinBox1b single mutant) (dsDNA)
DNA 1: B1 DNA 1 with G48A
DNA 2: B1 DNA 2 with C10T
DNA 3: CGCTCGAGTAGTAAC
B6: SPR Ns (non-specific; both boxes mutated) (dsDNA)
DNA 1: B1 DNA 1 with G25T, G33T, G44A, G48A
DNA 2: B1 DNA 2 with C10T, C14T, C25A, C33A
DNA 3: CGCTCGAGTAGTAAC

Columns and labels:
[1] = biological target: T1, His6-gp7 (Bacillus phage GIL01); test: EMSA; settings: EMSA/footprint: 80 mM NaCl, 25 mM Tris pH 7.5, 5 mM EDTA, 2 mM DTT, 0.1 mg/ml BSA, 0.05 ug/ul poly(dI-dC), room temp; SPR: 25 mM Tris-HCl pH 7.3, 140 mM NaCl …
[2] = biological target: T1, His6-gp7 (Bacillus phage GIL01); test: DNase I footprinting; settings: EMSA/footprint: 80 mM NaCl, 25 mM Tris pH 7.5, 5 mM EDTA, 2 mM DTT, 0.1 mg/ml BSA, 0.05 ug/ul poly(dI-dC), room temp; SPR: 25 mM Tris-HCl pH 7.3, 140 mM NaCl …
[3] = biological target: T2, His6-LexA (Bacillus thuringiensis LexA …); test: SPR; Biacore T100, CM5 chip, His-tagged LexA covalently coupled (EDC/NHS, ~2000 RU), no DNA; His-tagged gp7 (1.6-50 nM, 360 s) or gp1 as analyte; 25°C, 30 μl/min, SPR buffer (25 mM Tris-HCl pH 7.3, 140 mM NaCl, 5 mM EDTA, 2 mM DTT, 0.1 mg/ml BSA, 0.005% P20); apparent KD from plot of response against concentration, assuming one gp7 monomer per LexA monomer; settings: both partners purified
[4] = biological target: T3, His6-gp7; test: SPR; 300 nM gp7; EMSA/footprint: 80 mM NaCl, 25 mM Tris pH 7.5, 5 mM EDTA, 2 mM DTT, 0.1 mg/ml BSA, 0.05 ug/ul poly(dI-dC), room temp; SPR: 25 mM Tris-HCl pH 7.3, 140 mM NaCl, 5 mM EDTA, 2 mM DTT, 0.1 mg/ml BSA, 0.005% P20, 25 C; settings: protein: recombinant; tags: N-terminal His6 (pQE-30); label: 3'-biotin on S1 anchor; 42 bp; 15 nt 5' overhang annealed to S1

| Molecule | binding result [4] | further results |
| --- | --- | --- |
| CCAAGGGTGCTATAATAGGAAATGAGTTAAAAAACGAACAAGCGTTTTATAAGTGTTCGGTTTTTGTAACATAACTGTAATATAAAAACATTTGCATTACTGGTAACTTTCGGGTAATATTGGTAGCAGAGAGGGACAAACGGGACAAATCGAGACACGATACATACTCTCTATACAAGTGAAAAGAAGGTGGTGCATAT (double strand) [P1 EMSA probe WT (-25 to +176)] |  | binding [1]: no binding |
| GTGTGACAAGATATTCCAAGGGTGCTATAATAGGAAATGAGTTAAAAAACGAACAAGCGTTTTATAAGTGTTCGGTTTTTGTAACATAACTGTAATATAAAAACATTTGCATTACTGGTAACTTTCGGGTAATATTGGTAGCAGAGAGGGACAAACGGGACAAATCGAGACACGATACATACTCTCTATACAAGTGAAAAGAAGGTGGTGCATAT (double strand) [P1 footprint probe WT (-39 to +176)] |  | binding [2]: no binding |
| His6-MRDKLLDFIIELSQSSKQVVSKSYVIDRLMQVTKEDYKELEKNVEGKKDD (natural protein) [His6-gp7 (bacteriophage GIL01 gp7, product of ORF7)] |  | Kd [3]: 17.7 nM |
| B1 | no binding |  |
| B2 | no binding |  |
| B3 | no binding |  |
| B4 | no binding |  |
| B5 | no binding |  |
| B6 | no binding |  |
